From paper PMC6943437, “Coupling the Antimalarial Cell Penetrating Peptide TP10 to Classical Antimalarial Drugs Primaquine and Chloroquine Produces Strongly Hemolytic Conjugates” (Molecules, 2019) come the findings set out here.

“And” between values parts separate entries of the source, which are not always exact repeats. Equal values may be shown once. Where no end group is shown, it is not given here.

What is called IC50 is the concentration needed to halve the response being measured.

Common to all, as to format: cell-based
Series [1] can be described thus: In vitro hemolytic activity on healthy erythrocytes. The settings on record: healthy erythrocytes (hRBC); 10 µM, 1 h, hRBC only; dash with footnote c = hemolysis not detected; read-out: % hemolysis at 10 µM ± SD (n = 3), hRBC. As for the experimental part: (§1) For positive and negative controls, 1% Triton X-100 and PBS were added, respectively. After this period, the plates were centrifuged and supernatants transferred to another plate. Supernatant absorbance at 450 nm was assessed in a multi-mode microplate reader (Triad, Dynex Technologies, Chantilly, VA, USA) and values were treated using the following equation (1):(1) % Hemolysis=Abs−Abs(negative control)/Abs(positive control)−Abs(negative control)

The nature of series [2]: In vitro hemolytic activity on Plasmodium-infected erythrocyte cultures. The settings on record: cultures with 3% PiRBC, dash with footnote c = hemolysis not detected, read-out: % hemolysis at 10 µM ± SD (n = 3), PiRBC. The method, then: as §1
The subject of series [3] is P. falciparum 3D7. The settings on record: P. falciparum 3D7 (CQ-sensitive), 48 h; read-out: IC50 ± SD (n = 3). The method, then: These second-generation conjugates (synthesis routes depicted in Scheme 2; Scheme 3) were evaluated in vitro, alongside the commercial reference drug, CQ (1), their parent building blocks, TP10 and Cq (4), and first-generation conjugate 5a, regarding their ability to inhibit growth of blood-stage parasites of the CQ-sensitive P. falciparum 3D7 strain (Table 3). The primaquine analogues of Cq conjugates 5a and 14, respectively, PQ-C4-TP10 (3a) and TP10-S-S-PQ (Figure 2, 14′), were also included for comparison; the synthesis of these conjugates, 3a and 14′, has been reported elsewhere. Of note, substantial hemolysis was detected upon erythrocyte exposure to some of the test conjugates, particularly at the higher concentrations tested. In view of this, emolysis assays were also conducted on cultures of both hRBC and PiRBC (Table 3).
P. falciparum 3D7 strain (chloroquine and mefloquine susceptible) was continuously cultured as previously described. Parasitemia was monitored daily by microscopic examination of Giemsa (MERCK, Sigma-Aldrich) stained thin blood smears.
Synchronized ring-stage P. falciparum (3% hematocrit, 1% parasitemia) were incubated in a microtiter plate for 48 h in the presence of two-fold serial dilutions of TP10 and derived conjugates 11–15, in the 10–10000 nM concentration range. Cultures incubated with three-fold serial dilutions of chloroquine bisphosphate, and also of its analogue 4, in the 0.1–8000 nM concentration range, were included for comparison. Culture without test compounds was also added to the microtiter plate, as negative control. After incubation, 100 μL of a solution of SYBR Green (Thermo Fisher; SG; 0.001% v/v in PBS) was added to each well and plates incubated for another 60 min under standard culture conditions. Plates were then centrifuged at 2500 rpm for 2 min, the supernatant was discarded, and cells were re-suspended in 100 μL of PBS. Fluorescence was collected in a multi-mode microplate reader (Triad, Dynex Technologies) with excitation at 485 nm and emission at 535 nm. Fluorescence values were normalized (to take into account the normal growth of the parasite) and then plotted against logC. IC50 were determined using GraphPad Prism 6.

Series [4] concerns P. falciparum W2. The following applies: P. falciparum W2 (CQ-resistant), 48 h, n = 3. As for the experimental part: All conjugates and their respective parent CPP (Table 1), were screened in vitro for their antiplasmodial activity, using the CQ-resistant P. falciparum W2 strain. The primaquine analogue to 5a, i.e., conjugate 3 where the CPP is TP10, PQ-C4-TP10 (3a), was also included in the study for comparison.
Synchronized ring-stage P. falciparum parasites (W2 strain) were incubated with test compounds for 48 h in Roswell Park Memorial Institute (RPMI) 1640 medium containing 10% human serum or 0.5% Albumax serum substitute. Parasites were then fixed with 1% formaldehyde in phosphate-buffered saline (PBS), pH 7.4, for […] at RT and labeled with YOYO-1 (1 nM; molecular probes) in 0.1% Triton X-100 in PBS. Parasitemias were determined by flow cytometry, from dot plots (forward scatter versus fluorescence). For 50% inhibitory concentration (IC50) determinations, dose-response studies were performed, with the values normalized to percent control activity, and IC50s were calculated using GraphPad Prism, with data fitted by nonlinear regression.

Series [5] deals with hRBC. Kind of series: In vitro hemolytic activity on healthy erythrocytes. The following applies: cultures of hRBC and PiRBC, summary of Table 3. The method, then: as §1

As to `CC[C@H](C)[C@H](NC(=O)[C@H](CCCCN)NC(=O)[C@H](CCCCN)NC(=O)[C@H](C)NC(=O)[C@H](CC(C)C)NC(=O)[C@H](C)NC(=O)[C@H](C)NC(=O)[C@H](CC(C)C)NC(=O)[C@H](C)NC(=O)[C@H](CCCCN)NC(=O)[C@H](CC(C)C)NC(=O)[C@H](CC(N)=O)NC(=O)[C@@H](NC(=O)[C@H](CCCCN)NC(=O)CNC(=O)[C@H](CC(C)C)NC(=O)[C@H](CC(C)C)NC(=O)[C@H](Cc1ccc(O)cc1)NC(=O)CNC(=O)[C@H](C)NC(=O)CCC(=O)NCCCC(C)Nc1cc(OC)cc2cccnc12)[C@@H](C)CC)C(=O)N[C@@H](CC(C)C)C(N)=O` (stereo partly drawn) [3a], the hemolysis at 1 h, 10 µM was 89 ± 8% in series [1] and 49 ± 7% in series [2].

For the molecule `CC[C@H](C)[C@H](NC(=O)[C@H](CCCCN)NC(=O)[C@H](CCCCN)NC(=O)[C@H](C)NC(=O)[C@H](CC(C)C)NC(=O)[C@H](C)NC(=O)[C@H](C)NC(=O)[C@H](CC(C)C)NC(=O)[C@H](C)NC(=O)[C@H](CCCCN)NC(=O)[C@H](CC(C)C)NC(=O)[C@H](CC(N)=O)NC(=O)[C@@H](NC(=O)[C@H](CCCCN)NC(=O)CNC(=O)[C@H](CC(C)C)NC(=O)[C@H](CC(C)C)NC(=O)[C@H](Cc1ccc(O)cc1)NC(=O)CNC(=O)[C@H](C)NC(=O)CCC(=O)NCCCCNc1ccnc2cc(Cl)ccc12)[C@@H](C)CC)C(=O)N[C@@H](CC(C)C)C(N)=O` [5a], the IC50 in series [3] was 800 ± 100 nM. Also, the hemolysis at 1 h, 10 µM was found to be 23 ± 1% in series [1] and 6.5 ± 0.4% in series [2].

As to `CC[C@H](C)[C@H](NC(=O)[C@H](CCCCN)NC(=O)[C@H](CCCCN)NC(=O)[C@H](C)NC(=O)[C@H](CC(C)C)NC(=O)[C@H](C)NC(=O)[C@H](C)NC(=O)[C@H](CC(C)C)NC(=O)[C@H](C)NC(=O)[C@H](CCCCN)NC(=O)[C@H](CC(C)C)NC(=O)[C@H](CC(N)=O)NC(=O)[C@@H](NC(=O)[C@H](CCCCN)NC(=O)CNC(=O)[C@H](CC(C)C)NC(=O)[C@H](CC(C)C)NC(=O)[C@H](Cc1ccc(O)cc1)NC(=O)CNC(=O)[C@H](C)N)[C@@H](C)CC)C(=O)N[C@@H](CC(C)C)C(=O)N[C@@H](CSSC[C@H](N)C(=O)NCCCC(C)Nc1cc(OC)cc2cccnc12)C(N)=O` (stereo partly drawn) [14′], the results for the hemolysis at 1 h, 10 µM in series [1] and in series [2] were 99.7 ± 0.4% and 72 ± 9%, respectively.

On to `CC[C@H](C)[C@H](NC(=O)[C@H](CCCCN)NC(=O)[C@H](CCCCN)NC(=O)[C@H](C)NC(=O)[C@H](CC(C)C)NC(=O)[C@H](C)NC(=O)[C@H](C)NC(=O)[C@H](CC(C)C)NC(=O)[C@H](C)NC(=O)[C@H](CCCCN)NC(=O)[C@H](CC(C)C)NC(=O)[C@H](CC(N)=O)NC(=O)[C@@H](NC(=O)[C@H](CCCCN)NC(=O)CNC(=O)[C@H](CC(C)C)NC(=O)[C@H](CC(C)C)NC(=O)[C@H](Cc1ccc(O)cc1)NC(=O)CNC(=O)[C@H](C)N)[C@@H](C)CC)C(=O)N[C@@H](CC(C)C)C(N)=O` [TP10], for which the IC50 in series [4] was 5530 nM and 5500 nM; in series [3], 1900 ± 500 nM. Moreover, the hemolysis at 1 h, 10 µM in series [1] was determined as 3.7 ± 0.1%; in series [2], 3.4 ± 0.2%. Besides, the “hemolytic activity (in words)” value in series [5] is listed as “only slightly hemolytic”.

As for `CC[C@H](C)[C@H](NC(=O)[C@H](CCCCN)NC(=O)[C@H](CCCCN)NC(=O)[C@H](C)NC(=O)[C@H](CC(C)C)NC(=O)[C@H](C)NC(=O)[C@H](C)NC(=O)[C@H](CC(C)C)NC(=O)[C@H](C)NC(=O)[C@H](CCCCN)NC(=O)[C@H](CC(C)C)NC(=O)[C@H](CC(N)=O)NC(=O)[C@@H](NC(=O)[C@H](CCCCN)NC(=O)CNC(=O)[C@H](CC(C)C)NC(=O)[C@H](CC(C)C)NC(=O)[C@H](Cc1ccc(O)cc1)NC(=O)CNC(=O)[C@H](C)NC(=O)CCCCCNC(=O)CCC(=O)NCCCCNc1ccnc2cc(Cl)ccc12)[C@@H](C)CC)C(=O)N[C@@H](CC(C)C)C(N)=O` [compound 10], the IC50 in series [3] is 800 ± 300 nM. The hemolysis at 1 h, 10 µM in series [1] was 38 ± 2%; in series [2] it was 19 ± 1%.

For `CC[C@H](C)[C@H](NC(=O)[C@H](CCCCN)NC(=O)[C@H](CCCCN)NC(=O)[C@H](C)NC(=O)[C@H](CC(C)C)NC(=O)[C@H](C)NC(=O)[C@H](C)NC(=O)[C@H](CC(C)C)NC(=O)[C@H](C)NC(=O)[C@H](CCCCN)NC(=O)[C@H](CC(C)C)NC(=O)[C@H](CC(N)=O)NC(=O)[C@@H](NC(=O)[C@H](CCCCN)NC(=O)CNC(=O)[C@H](CC(C)C)NC(=O)[C@H](CC(C)C)NC(=O)[C@H](Cc1ccc(O)cc1)NC(=O)CNC(=O)[C@H](C)NC(=O)[C@@H](N)Cc1cn(CCCCCC(=O)NCCCCNc2ccnc3cc(Cl)ccc23)nn1)[C@@H](C)CC)C(=O)N[C@@H](CC(C)C)C(N)=O` [compound 11], the IC50 in series [3] worked out at 1200 ± 200 nM. In addition, the values for the hemolysis at 1 h, 10 µM in series [1] and in series [2] were 23 ± 1% and 10.7 ± 0.1%, respectively.

On to `CC[C@H](C)[C@H](NC(=O)[C@H](CCCCN)NC(=O)[C@H](CCCCN)NC(=O)[C@H](C)NC(=O)[C@H](CC(C)C)NC(=O)[C@H](C)NC(=O)[C@H](C)NC(=O)[C@H](CC(C)C)NC(=O)[C@H](C)NC(=O)[C@H](CCCCN)NC(=O)[C@H](CC(C)C)NC(=O)[C@H](CC(N)=O)NC(=O)[C@@H](NC(=O)[C@H](CCCCN)NC(=O)CNC(=O)[C@H](CC(C)C)NC(=O)[C@H](CC(C)C)NC(=O)[C@H](Cc1ccc(O)cc1)NC(=O)CNC(=O)[C@H](C)NC(=O)[C@@H](N)CSSC[C@H](N)C(=O)NCCCCNc1ccnc2cc(Cl)ccc12)[C@@H](C)CC)C(=O)N[C@@H](CC(C)C)C(N)=O` [compound 12], for which, in series [3], the concentration for half-maximal inhibition (IC50) was 1000 ± 300 nM. Moreover, the hemolysis at 1 h, 10 µM is 8.5 ± 0.5% in series [1] and 2 ± 0.3% in series [2].

In the case of `CC[C@H](C)[C@H](NC(=O)[C@H](CCCCNC(=O)CCC(=O)NCCCCNc1ccnc2cc(Cl)ccc12)NC(=O)[C@H](CCCCN)NC(=O)[C@H](C)NC(=O)[C@H](CC(C)C)NC(=O)[C@H](C)NC(=O)[C@H](C)NC(=O)[C@H](CC(C)C)NC(=O)[C@H](C)NC(=O)[C@H](CCCCN)NC(=O)[C@H](CC(C)C)NC(=O)[C@H](CC(N)=O)NC(=O)[C@@H](NC(=O)[C@H](CCCCN)NC(=O)CNC(=O)[C@H](CC(C)C)NC(=O)[C@H](CC(C)C)NC(=O)[C@H](Cc1ccc(O)cc1)NC(=O)CNC(=O)[C@H](C)N)[C@@H](C)CC)C(=O)N[C@@H](CC(C)C)C(N)=O` [compound 13], the hemolysis at 1 h, 10 µM is 50 ± 2% in series [1] and 41 ± 2% in series [2].

Regarding `CC[C@H](C)[C@H](NC(=O)[C@H](CCCCN)NC(=O)[C@H](CCCCN)NC(=O)[C@H](C)NC(=O)[C@H](CC(C)C)NC(=O)[C@H](C)NC(=O)[C@H](C)NC(=O)[C@H](CC(C)C)NC(=O)[C@H](C)NC(=O)[C@H](CCCCN)NC(=O)[C@H](CC(C)C)NC(=O)[C@H](CC(N)=O)NC(=O)[C@@H](NC(=O)[C@H](CCCCN)NC(=O)CNC(=O)[C@H](CC(C)C)NC(=O)[C@H](CC(C)C)NC(=O)[C@H](Cc1ccc(O)cc1)NC(=O)CNC(=O)[C@H](C)N)[C@@H](C)CC)C(=O)N[C@@H](CC(C)C)C(=O)N[C@@H](CSSC[C@H](N)C(=O)NCCCCNc1ccnc2cc(Cl)ccc12)C(N)=O` [compound 14], the IC50 in series [3] came to 2300 ± 400 nM. Besides, the hemolysis at 1 h, 10 µM in series [1] was found to be 18.2 ± 0.8%; in series [2], 7 ± 1%.

In turn, H-VKKKKIKREIKI-NH2 [DPT-sh1] displayed an IC50 in series [4] of over 10000 nM.

Turning to “N-(7-Methylquinolin-4-yl)butane-1,4-diamine [compound 4]”, in series [3], the IC50 is 70 ± 20 nM. Moreover, the “hemolytic activity (in words)” value in series [5] is “not hemolytic”.

In turn, VRLIVAVRIWRR-NH2 [IDR-1018] gave an IC50 in series [4] of over 10000 nM.
